Results on 2 molecules are retold here after patent publication US20240343803A1 (SHANDONG SIMCERE BIOPHARMACEUTICAL, published 2024).

What is called EC50 is the concentration needed to bring the measured effect to its halfway point. For orientation: IC50 means the point on the concentration scale where inhibition reaches its midpoint.

Test [1] addresses T1, human PVRIG (AcroBiosystems, Cat NO. PVG-H52H4) (human, UniProt Q6DKI7 41-171, limits assumed).
T1 construct: Bought protein with His tag; also called human PVRIG-his; human PVRIG protein
T1 sequence (looked up): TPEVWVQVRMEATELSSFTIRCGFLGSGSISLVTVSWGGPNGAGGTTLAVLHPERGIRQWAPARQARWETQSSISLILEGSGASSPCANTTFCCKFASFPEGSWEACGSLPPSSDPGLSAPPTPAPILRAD
Kind of test: ELISA, coated human PVRIG. The protocol: (§1) The ELISA plate was pre-coated with 50 μL/well of 1.0 μg/mL human PVRIG (AcroBiosystems, Cat NO. PVG-H52H4) or 50 μL/well of 0.5 μg/mL cynomolgus monkey PVRIG (Novoprotein, Cat NO. C09B). The tested antibodies were serially diluted (initial concentration 13 nM, 3-fold serial dilution, 12 concentration points), added into the plate (50 μL/well) and incubated at 37° C. for 2.0 hours. After washing the plate, the Goat anti-human IgG Fc-HRP (Merck, Cat NO. AP113P) working solution (dilution ratio 1:5000, 50 μL/well) were added into wells and incubated at 37° C. for 1.0 hour. A HRP substrate, TMB (KPL, Cat NO. 5120-0077) was added into wells after washing the plate again and incubated at 37° C. for 10 minutes for color development. After adding a termination solution to terminate the reaction, the absorbance value was read by a microplate reader (PE, Ensight-HH3400). An antibody binding curve was drawn with molar concentration of antibodies as the abscissa and the corresponding OD value as the ordinate. The EC50 value was calculated by using a Four Parameter Logistic Fit (GraphPadPrism9). […] The positive control antibodies are COM701-hIgG1, PVRIG-A50-H1b and PVRIG-A105-H1; and the negative control antibodies are anti-Fluorescein-hIgG1 (in house). The binding results of the 4 humanized bispecific antibodies to human PVRIG protein are shown in FIG. 41 and Tables 40 and 41, and the binding results to cynomolgus monkey PVRIG are shown in FIG. 42 and Tables 40 and 41. […] The binding of LC-BsAb-002 and LC-BsAb-006 to human PVRIG protein is slightly weaker than that of the corresponding monoclonal antibody (PVRIG-A50-H1b) and the positive control (COM701-hIgG1).
On the technique in general: An ELISA detects its analyte on a solid surface through an enzyme-linked reagent.

In test [2] the target is T2, cynomolgus monkey PVRIG (Novoprotein, Cat NO. C09B) (cynomolgus monkey, UniProt A0A2K5WVV8 41-171).
T2 construct: Bought protein; construct not described; also called cynomolgus monkey PVRIG protein
T2 sequence: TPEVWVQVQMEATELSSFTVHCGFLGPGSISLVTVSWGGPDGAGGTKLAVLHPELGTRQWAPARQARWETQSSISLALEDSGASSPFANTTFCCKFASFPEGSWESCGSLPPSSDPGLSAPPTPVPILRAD
Description: ELISA, coated cynomolgus PVRIG. The method, then:
as §1

Test [3] addresses T3, human PVRIG-mFc protein (Acro, PVG-H5253) (human, UniProt Q6DKI7 41-171, limits assumed).
T3 construct: extracellular domain; Bought protein; also called PVRIG-ECD-mFc; not shown: mouse Fc tag of the bought protein
T3 sequence (looked up): T1 sequence (looked up)
Description: HTRF competition, PVRIG-mFc with Bio-CD112-His as competitor. The method, then:
PVRIG-mFc (ACRO Biosystems, Cat NO. PVG-H5253) and Bio-CD112-His (Sino Biological, Cat NO. 10005-H08H) were diluted to 0.5 μg/mL, respectively. Streptavidin-Tb cryptate (Cisbio) and PAb anti mouse IgG-XL665 (Cisbio) were diluted to 20 μg/mL and 0.8 μg/mL, respectively. The tested antibodies were diluted from the initial concentration of 120 nM, by 3-fold serial dilution for 12 concentration points. The diluted PVRIG-mFc, Bio-CD112-His, Streptavidin-Tb Crytate and PAb anti mouse IgG-XL665 were mixed at 1:1:1:1, and added into a 384-well plate (PE, Cat NO. 6007299), 10 μL/well. 10 μL/well of serially diluted antibodies was added into wells, centrifuged at 1500 rpm for 30s, and incubated at 37° C. for 1 hour. The plate was read on the microplate reader (PE, Envision2105) with wavelengths of 665 nm and 620 nm. […] A Four Parameter Logistic Fit was performed with the molar concentration of the antibodies as the abscissa and Ratio as the ordinate to calculate IC50. The smaller the IC50, the better the effect of the antibody block the binding of PVRIG to PVRL2. The positive controls in this experiment are COM701-hIgG1, PVRIG-A50-H1b and PVRIG-A105-H1; and the negative control antibody is anti-Fluorescein-hIgG1 (in house). The effect of 4 humanized bispecific antibodies blocking the binding of PVRIG to PVRL2 is shown in FIG. 51 and Tables 44 and 45. […] The blocking effect of LC-BsAb-002 is better than its corresponding monoclonal antibody (PVRIG-A50-H1b) and the positive control (COM701-hIgG1). The blocking effect of LC-BsAb-006 is better than its corresponding monoclonal antibody (PVRIG-A50-H1b), but slightly weaker than the positive control (COM701-hIgG1). The blocking effects of LC-BsAb-009 and LC-BsAb-010 are not as good as their corresponding monoclonal antibodies (PVRIG-A105-H1) and the positive control (COM701-hIgG1).
(In general: TR-FRET usually uses a lanthanide donor and a delayed reading to cut background.)

The target of test [4] is T3, human PVRIG-mFc protein (Acro, …). Kind of test: FACS blocking of PVRIG-mFc binding to CHO-K1-CD112 cells; competitor CD112. In a few lines:
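Zombie violet-stained CHO-K1-CD112 cells were then added for 30 min at 4° C, followed by PE goat anti-mouse IgG Fc (1:250) and mean fluorescence intensity on a BD Canto II. IC50 and curve AUC came from four-parameter logistic fits (GraphPad Prism 9) and were expressed as percentages of reference antibody values.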

Test [5] addresses T4, human TIGIT ECD-mFc (human).
T4 construct: also called human TIGIT protein; fusion protein of extracellular domain of human TIGIT and mouse IgG2a Fc fragment
T4 chain: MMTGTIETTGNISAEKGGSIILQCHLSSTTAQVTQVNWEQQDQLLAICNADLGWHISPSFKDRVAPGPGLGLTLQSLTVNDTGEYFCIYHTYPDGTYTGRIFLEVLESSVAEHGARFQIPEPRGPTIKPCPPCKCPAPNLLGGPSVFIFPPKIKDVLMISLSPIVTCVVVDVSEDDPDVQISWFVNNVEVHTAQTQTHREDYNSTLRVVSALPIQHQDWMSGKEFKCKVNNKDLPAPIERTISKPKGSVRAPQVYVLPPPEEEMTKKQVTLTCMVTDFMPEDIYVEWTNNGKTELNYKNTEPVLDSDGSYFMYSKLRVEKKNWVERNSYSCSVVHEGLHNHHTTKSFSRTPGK
Description: ELISA, human TIGIT ECD-mFc captured by anti-mouse IgG. The protocol: (§2) After washing with blocking buffer, the plate was added with 50 μL/well of 30 ng/ml human TIGIT ECD-mFc (in house) or cynomolgus monkey TIGIT ECD-mFc (in house) and incubated at 37° C. for 2.0 hours. After washing the plate, the serial diluted antibodies (initial concentration 13 nM, 3-fold serial dilution, 12 concentration points) were added into the plate (50 μL/well) and incubated at 37° C. for 2.0 hours. After washing the plate, the goat anti-human IgG Fc-HRP (Merck, Cat NO. AP113P)) working solution (dilution ratio 1:5000, 50 μL/well) were added into wells and incubated at 37° C. for 1.0 hour. A HRP substrate, TMB (KPL, Cat NO. 5120-0077) was added into wells after washing the plate again for color development. After adding a termination solution to terminate the reaction, the absorbance value was read by a microplate reader (PE, Ensight-HH3400). An antibody binding curve was drawn with molar concentration of antibodies as the abscissa and the corresponding OD value as the ordinate. The EC50 value was calculated by using a Four Parameter Logistic Fit (GraphPad Prism9). […] The positive control antibodies are RG6058-hIgG1, TIGIT-002-H4L3 and TIGIT-005-H2Lld; and the negative control antibodies are anti-Fluorescein-hIgG1 (in house). The binding results of the 4 humanized bispecific antibodies to human TIGIT protein are shown in FIG. 43 and Tables 42 and 43, and the binding results to cynomolgus monkey TIGIT are shown in FIG. 44 and Tables 42 and 43.

Test [6] has as its target T4, human TIGIT ECD-mFc. The description is as above. The protocol: as §2
The target of test [7] is T5, cynomolgus monkey TIGIT ECD-mFc (cynomolgus monkey).
T5 construct: also called cynomolgus monkey TIGIT protein
Description: ELISA, cynomolgus TIGIT ECD-mFc captured by anti-mouse IgG. The protocol:
as §2

Test [8] deals with T5, cynomolgus monkey TIGIT ECD-mFc. Described as above. The protocol: as §2
The source holds these as a separate data set.

Like-named read-outs stand apart in the source and are kept apart here.

B1: PVRIG-A50-H1b (Fc fusion)
chain: EVQLVESGGGLVQPGGSLRLSCAASGFTFSYYDMSWVRQAPGKGLEWVSTINSDGGRTSYVDSVKGRFTISRDNSKNTLYLQMNSLRAEDTAVYYCVEGDPHNFGLESLSLRDFGSWGQGTMVTVSS
notes: VHH-human IgG1 Fc format is stated for the parental VHH antibodies; not restated for the humanized variants; also called A50.VH1b; not shown: human IgG1 hinge-CH2-CH3 (Fc)
For the molecule B1, in test [1], the “% relative activity COM701-hIgG1/tested antibody” value was found to be 65.4%, the “% relative activity PVRIG-A50-H1b/tested antibody” value stood at 100% and the EC50 came out at 379 pM. Further, in test [2], the “% relative activity COM701-hIgG1/tested antibody” value was found to be 95.5%, the “% relative activity PVRIG-A50-H1b/tested antibody” value turned out to be 100% and the EC50 amounted to 38 pM. In test [3], the “% relative activity COM701-hIgG1/tested antibody” value amounted to 66.7%, the “% relative activity PVRIG-A50-H1b/tested antibody” value turned out to be 100% and the half-maximal inhibitory concentration (IC50) was found to be 206 pM. Moreover, in test [4], the “% AUC to COM701-hIgG4” value is 104%, the “% AUC to SO35-hIgG1” value is 61.6%, the “% AUC to parental Ab” value was determined as 85.5% and the “% IC50 to COM701-hIgG4” value came out at 95.2%. In test [4], the “% IC50 to SO35-hIgG1” value amounted to 73.7% and the “% IC50 to parental Ab” value was found to be 81.4%.

B2: RG6058-hIgG1 (antibody, V domains shown)
VH: EVQLQQSGPGLVKPSQTLSLTCAISGDSVSSNSAAWNWIRQSPSRGLEWLGKTYYRFKWYSDYAVSVKGRITINPDTSKNQFSLQLNSVTPEDTAVFYCTRESTTYDLLAGPFDYWGQGTLVTVSS
VL: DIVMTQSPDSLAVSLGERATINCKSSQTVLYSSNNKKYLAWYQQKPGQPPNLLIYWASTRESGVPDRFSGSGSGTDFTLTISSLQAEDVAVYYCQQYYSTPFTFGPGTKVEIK
notes: Anti-TIGIT positive control; also called Roche RG6058
Take B2: in the test with human TIGIT ECD-mFc [5], the “% relative activity RG6058-hIgG1/tested antibody” value stood at 100%, the “% relative activity TIGIT-002-H4L3/tested antibody” value was determined as 74.3% and the concentration for a half-maximal effect (EC50) was found to be 50.4 pM. For the same molecule, in the test with human TIGIT ECD-mFc [6], the “% relative activity RG6058-hIgG1/tested antibody” value was 100%, the “% relative activity TIGIT-005-H2L1d/tested antibody” value came to 85.2% and the EC50 worked out at 50.4 pM. In test [7], the “% relative activity RG6058-hIgG1/tested antibody” value was 100%, the “% relative activity TIGIT-002-H4L3/tested antibody” value stood at 90% and the concentration giving a half-maximal response (EC50) came out at 46 pM. Also, in test [8], the “% relative activity RG6058-hIgG1/tested antibody” value was determined as 100%, the “% relative activity TIGIT-005-H2L1d/tested antibody” value came out at 96.8% and the 50% effective concentration (EC50) was 46 pM.
